Source: patent publication US12606635B2, “Glypican-2-binding moieties, chimeric antigen receptors and uses thereof” (Nanjing Legend Biotech Co., Ltd., priority 2020, dated 2026)

T1: recombinant human GPC2-His protein (Homo sapiens, UniProt Q8N158)
T1 construct: His
T1 sequence (Q8N158 24-554): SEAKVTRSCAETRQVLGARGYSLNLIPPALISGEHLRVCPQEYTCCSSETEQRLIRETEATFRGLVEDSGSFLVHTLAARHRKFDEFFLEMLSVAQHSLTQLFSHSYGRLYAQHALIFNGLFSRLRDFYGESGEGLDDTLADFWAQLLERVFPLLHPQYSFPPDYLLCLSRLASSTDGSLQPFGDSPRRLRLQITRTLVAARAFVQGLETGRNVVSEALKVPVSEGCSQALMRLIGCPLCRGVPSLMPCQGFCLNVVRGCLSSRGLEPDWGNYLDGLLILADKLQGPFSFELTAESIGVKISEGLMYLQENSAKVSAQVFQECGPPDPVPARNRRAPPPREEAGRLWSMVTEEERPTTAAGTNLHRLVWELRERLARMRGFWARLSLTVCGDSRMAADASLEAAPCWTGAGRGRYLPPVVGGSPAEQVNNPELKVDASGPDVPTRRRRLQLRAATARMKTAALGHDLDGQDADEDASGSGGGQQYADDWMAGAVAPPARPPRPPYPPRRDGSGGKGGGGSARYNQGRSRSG


Legend:
[1] = test system: human neuroblastoma cell line SH-SY5Y; assay: In vitro cytotoxicity assay (LDH), SH-SY5Y; format: cell-based; settings: second group, FIG. 6C
Method: The pre-activated T cells were transduced with lentivirus stock in the presence of […] polybrene and 300 IU/mL IL-2. T cells and lentivirus were centrifuged at 1000 g, 32° C. for 1 h and placed in humidified cell culture incubator for transgene expression under suitable conditions. On day 5 or day 7 or day 10 post-transduction, transduced T cells were harvested and co-incubated with tumor cells at an effector (CAR T) to target cell ratio of 10:1 or 5:1 or 2:1 or 1:1 or 0.2:1 for 20 hours. Target cells were human neuroblastoma cell line SH-SY5Y (ATCC, #CRL-2266), human neuroblastoma cell line IMR-32 cells (ATCC, #CCL-127), or human epidermoid carcinoma cell line A-431 (ATCC, #CRL-1555). To assay the cytotoxicity of CAR T cells on tumor cells, the Cytotoxicity Detection Kit (LDH) (Roche, #11644793001) assay reagents were prepared according to manufacturer's protocol. Reaction mix was added to the cell-free supernatant of each sample to detect the LDH released from cells. Optical densities at OD492 nm and OD650 nm were measured by PHERStar Microplate Reader. Baseline LDH released from the target cell in the absence of effector cells and effector cell in the absence of target cells were subtracted from the total LDH amount. The target maximum release was obtained by adding Triton-X100 at a final concentration of 1% to target cells in the absence of effector cells at the time when the cytotoxicity assays initiated. Supernatant from target cells in the absence of effector cells was used for target minimum release. The specific cytotoxicity was calculated by the formula: % Target cell lysis=100*[(OD CAR T cell+Target cell)−(OD CAR T cell)−(OD Target cell)+(OD Buffer background)]/(OD Target Maximum release−OD Target Minimum release).
On day 5 or day 8 or day 10 post-transduction, transduced T cells were harvested and co-incubated with tumor cells at an effector (CAR T) to target cell ratio of 10:1 or 1:1 or 0.2:1 for 20 hours. To assay the cytotoxicity of CAR T cells on tumor cells, the Cytotoxicity Detection Kit (LDH) (Roche, #11644793001) was added to the culture supernatant and the specific cytotoxicity for each CAR T cell construct was measured as described in Example 6.

[2] = target: T1, recombinant human GPC2-His protein; assay: SPR (Biacore T200) affinity of anti-GPC2 VHH-hIgG1Fc; settings: 1:1 binding model
Method: Each of the exemplary anti-GPC2 VHH sequences was cloned into a vector comprising a human IgG1Fc fragment (hlgG1Fc) sequence to facilitate recombinant expression of anti-GPC2 VHH-hlgG1Fc. Recombinant proteins were obtained and purified for SPR assays. The affinity of each anti-GPC2 VHH-hIgG1Fc for GPC2 was determined by SPR using a BIACORE® T200 analytical system (GE Healthcare). Briefly, recombinant human GPC2-His protein was covalently coupled to a CM5(s) sensor chip using an amine coupling kit. Exemplary VHH-hIgG1Fc proteins were serially diluted in running buffer (10 mM HEPES, 150 mM NaCl, 3 mM EDTA, 0.05% Tween-20, pH 7.4) and injected over the chip cell at a flowrate of 100 μL/min for 100 seconds followed by buffer-only injection for 300 seconds to allow for antibody dissociation. The dissociation […] (KD) were determined using the BIACORE® T200 evaluation software version 3.0 (Langmuir binding, local fit, 1:1 binding model).

| ka [2] [M⁻¹ s⁻¹] | kd [2] [s⁻¹] | Molecule | cytotoxicity against SH-SY5Y compared with CAS70950-BBz, CAS72052-BBz and CAS72669-BBz [1] |
| --- | --- | --- | --- |
|  |  | CAS77916-BBz: camel VHH anti-GPC2 CAR (4-1BB, CD3ζ), SEQ ID NO: 207; tested as CAR T cells (protein, expressed in CAR T cells; CAS77916-BBz) MALPVTALLLPLALLLHAARPQVHLMESGGGSVQAGGSLRLSCATSGYTSSWNCMGWFRQPPGKEREGVATIANRGHSTYYADSVKGRFTISQGNAKNTVYLQMNSLKPEDTAMYYCATDTWACVGISTDFEYWGQGTQVTVSSTTTPAPRPPTPAPTIASQPLSLRPEACRPAAGGAVHTRGLDFACDIYIWAPLAGTCGVLLLSLVITLYCKRGRKKLLYIFKQPFMRPVQTTQEEDGCSCRFPEEEEGGCELRVKFSRSADAPAYKQGQNQLYNELNLGRREEYDVLDKRRGRDPEMGGKPRRKNPQEGLYNELQKDKMAEAYSEIGMKGERRRGKGHDGLYQGLSTATKDTYDALHMQALPPR | better cytotoxicity |
|  |  | CAS78117-BBz: camel VHH anti-GPC2 CAR (4-1BB, CD3ζ), SEQ ID NO: 212; tested as CAR T cells (protein, expressed in CAR T cells; CAS78117-BBz) MALPVTALLLPLALLLHAARPQVKLVESGGGSVQAGGALRLSCIVRRYTYATYSMAWFRQSPGKEREGVAGLDSVGATGYAESVKGRFTISKDNAKNILYLQMNSLKPEDTAMYYCVVDPASAKVTYGSWSTPSYAYWGQGTQVTVSSTTTPAPRPPTPAPTIASQPLSLRPEACRPAAGGAVHTRGLDFACDIYIWAPLAGTCGVLLLSLVITLYCKRGRKKLLYIFKQPFMRPVQTTQEEDGCSCRFPEEEEGGCELRVKFSRSADAPAYKQGQNQLYNELNLGRREEYDVLDKRRGRDPEMGGKPRRKNPQEGLYNELQKDKMAEAYSEIGMKGERRRGKGHDGLYQGLSTATKDTYDALHMQALPPR | better cytotoxicity |
|  |  | CAS77932-BBz: camel VHH anti-GPC2 CAR (4-1BB, CD3ζ), SEQ ID NO: 208; tested as CAR T cells (protein, expressed in CAR T cells; CAS77932-BBz) MALPVTALLLPLALLLHAARPQVQLKESGGGSVQAGGSLRLSCAVSGYWYSVAWMGWFRQTPGKEREGVAAVLNGGGRRYYADSVKGRFTISQDNSKNTLYLQMNSLKPEDTAMYYCAAGNGVGHPLGPSEYNYWGQGTQVTVSSTTTPAPRPPTPAPTIASQPLSLRPEACRPAAGGAVHTRGLDFACDIYIWAPLAGTCGVLLLSLVITLYCKRGRKKLLYIFKQPFMRPVQTTQEEDGCSCRFPEEEEGGCELRVKFSRSADAPAYKQGQNQLYNELNLGRREEYDVLDKRRGRDPEMGGKPRRKNPQEGLYNELQKDKMAEAYSEIGMKGERRRGKGHDGLYQGLSTATKDTYDALHMQALPPR | better cytotoxicity |
| 320000 | 6.1e-05 | AS71529VH6-AS70950VH6-hIgG1Fc: tandem AS71529VH6-AS70950VH6 VHH fused to human IgG1Fc fragment (protein, left off: a dimerising Fc or GST, tandem AS71529VH6-AS70950VH6 VHH fused to human IgG1Fc fragment) EVQLVESGGGLVQPGGSLRLSCAVSEYRYSSRYCMGWFRQAPGKGREGVAAIDSNGSADYVDSVKGRFTISKDNSKNTLYLQMNSLRAEDTAMYYCAADHLAYDCYSGATSVFRYWGQGTLVTVSSGGGGSGGGGSGGGGSEVQLVESGGGLVQPGGSLRLSCAISEFTYKNTCVGWFRQAPGKGREGVAAIDSDGNTNYVDSVKGRFTISQDNSKNTVYLQMNSLRAEDTAMYYCAAGAYCGRLLLWIGNYAYWGQGTLVTVSS |  |
| 520000 | 7.7e-05 | AS72669VH6-hIgG1Fc: AS72669VH6 VHH fused to human IgG1Fc fragment (protein, left off: a dimerising Fc or GST, AS72669VH6 VHH fused to human IgG1Fc fragment) QVQLVESGGGVVQPGGSLRLSCAASRFTYSSYCMGWIRQAPGKGREGVAIFYTGGGRTYYADSVKGRFTISQDNSKNTLYLQMNSLRAEDTAVYYCVAGFYCSGGYWEGDFGYWGQGTLVTVSS |  |
